The record followed here is paper PMC7857584.

In assay [1] the target is MLA22LRR10-cLUC (barley).
The target in assay [2] is MLA10-cLUC (barley) (UniProt Q6WWJ4).

AVRA10-nLUC (natural protein): the reduction of relative LUC activity (proxy for cell death) in barley protoplasts co-expressing AVRa10 and Mla22Lrr10, against the empty vector (% reduction of relative LUC activity) in assay [1] was 40. Also, the LUC activity (proxy for cell viability) in barley protoplasts co-expressing Mla10 and AVRa10, against Mla10 with AVRa22 (% lower LUC activity) in assay [2] amounted to 50.
